# Source: patent publication US20100021473A1 (DOMANTIS, published 2010)
# Substitutions are numbered along the chain they refer to.
# B1: DOM14-63 (other)
# chain: DIQMTQSPSSLSASVGDRVTITCRASQNISRGLRWYQQKPGKAPKLLIYHASKLQSGVPSRFSGSGSGTDFTLTISSLQPEDFATYYCQQYKVFPGTFGQGTKVEIKR
# notes: Anti-CD56 dAb monomer
# B2: DOM14-68 (other)
# chain: DIQMTQSPSSLSASVGDRVTITCRASQEISGELTWYQQKPGKAPKLLIYFSSILQSGVPSRFSGSGSGTDFTLTISSLQPEDFATYYCQQRKLRPYTFGQGTKVEIKR
# notes: Anti-CD56 dAb monomer
# B3: DOM14-62 (other)
# chain: DIQMTQSPSSLSASVGDRVTITCRASQNISYHLVWYQQKPGKAPKLLIYSSSNLQSGVPSRFSGSGSGTDFTLTISSLQPEDLATYYCQQLASWPHTLGQGTKVEIKR
# notes: Anti-CD56 dAb monomer
# B4: DOM14-23 (other)
# chain: DIQMTQSPSSLSASVGDRVTITCRASQDIFPFLNWYQQKPGKAPELLIYRASILHSGVPSRFSGSGSGTDFTLTISSLQPEDFATYYCQQIARSPRTFGQGTKVEIKR
# notes: Anti-CD56 dAb
# B5: DOM14-70 (other)
# chain: DIQMTQSPSSLSASVGDRVTITCRASQEIGQWLNWYQQKPGKAPKLLIYWGSELQSGVPSRFSGSGSGTDFTLTISSLQPEDFATYYCQQVSRNPFTFGQGTKVEIKR
# notes: Anti-CD56 dAb monomer
# B6: DOM14-57 (other)
# chain: B5 chain with E28Q, G30D, Q31D, W32Y, G51T, E53L, V91S, S92A, R93H, N94R
# notes: Anti-CD56 dAb monomer
# B7: DOM 11-3-1/DOM 12-45-2 (bispecific antibody, V domains shown)
# V domain 1: DIQMTQSPSSLSASVGDRVTITCRASHNIDSRLSWYQQKPGKAPKLLIYRASVLQSGVPSRFRGSGSGTDFTLTISSLQPEDFATYYCQQWDMFPLSFGQGTKVEIKR
# V domain 2: DIQMTQSPSSLSASVGDRVTITCRASQDIGGRLRWYQQKPGKAPKLLIYHGSRLDSGVPSRFSGSRSGADFTLTISSLQPEDFATYYCQQQWYRPYTFGQGTKVEIKR
# B8: DOM 11-3-15/DOM 12-45-2 (bispecific antibody, V domains shown)
# V domain 1: B7 V domain 1 with H27Q, R63S, S65T
# V domain 2: B7 V domain 2
# B9: DOM 11-3-20/DOM 12-45-2 (bispecific antibody, V domains shown)
# V domain 1: B7 V domain 1 with M4T, H27Q, A51S, R63S, S97M
# V domain 2: B7 V domain 2
# B10: DOM 11-3-23/DOM 12-45-2 (bispecific antibody, V domains shown)
# V domain 1: B7 V domain 1 with H27Q, R63S, S97A, K103R
# V domain 2: B7 V domain 2
# Target: T1, CD56 immobilised on Biacore CM5 chip (UniProt P13591 20-718, limits assumed)
# T1 construct: also called DOM14
# Assay: Biacore, CD56 immobilised
# Procedure: Anti-CD38, anti-CEA and anti-CD56 dAbs that were identified as FACS positive clones were in addition analysed by Biacore using the following procedure. The CM5 chip surface was activated by flushing 1:1 EDC/NHS (0.4M1-ethyl-3-(3-dimenthylaminopropyl)-carbodiimide in water; 0.1 M N-hydroxysuccinimide in water) at a flow rate of 5 uL/min for 10 minute contact time. CD38 was immobilised at 500 nM in Acetate buffer pH4 at 5 uL/min this was repeated until the RUs reached between 500 and 1000 (low density). CEA and CD56 were coupled in acetate buffer pH 4.5. Any excess reactive groups were deactivated by running 1M ethanolamine-HCl over the CM5 chip (again 5 uL/min for 7 mins). The affinities of the anti-CD38, anti-CEA and anti-CD56 dAbs were measured on the biacore as described above.
Kd [µM],binding result,Binder
0.1,–,B1
–,no binding,B2
–,no binding,B3
0.1 to 0.2,–,B4
0.5 to 0.8,–,B5
–,no binding,B6

# Target: T2, CD38 and CD138 co-expressed on cells (CD38+/CD138+ double positive cells) (UniProt P28907 1-300; P18827 23-310)
# T2 construct: whole, on cells; Two separate membrane proteins on the same cell, not a complex; also called RPMI8226; OPM2
# Assay: FACS cell binding titration on OPM2 cells (CD38+/CD138+), arithmetic mean fluorescence. The table prints no unit; the unit is taken from the x axis 'log conc in nm' (nanomolar).
# Procedure: The determination of cell binding by FACS was carried out as follows: cells were centrifuged at 250 g for 5 minutes and the growth medium was removed. The cells were resuspended in FACS incubation buffer at 4° C. at a density of 2×10⁶ cells/ml. The cells were blocked by incubating for 15 minutes at 4° C. in FACS incubation buffer. Fifty microliters of 2× stock of primary antibody (anti-CD38 FITC, anti-CD138 FITC or mIgG1 FITC conjugated isotype control (all BD Biosciences) was added; or dAb was added to cells in FACS incubation buffer and incubated for 30-60 minutes at 4° C. The cells were then washed once in FACS incubation buffer. One hundred microliters of secondary antibody (rabbit anti-Vk) was added to cells in FACS incubation buffer and incubated 30-60 minutes at 4° C. The cells were washed once in FACS incubation buffer. Then 100 ul of 1× tertiary antibody was added to the cells in FACS incubation buffer and incubated for 30-60 mins at 4° C. (for dAbs the tertiary antibody is anti-rabbit FITC (Sigma)). The cells were washed twice in FACS incubation buffer. The cell pellet was resuspend in 200 ul FACS incubation buffer+viable cell marker (BD Viaprobe). The cells were then analyzed by flow cytometry.
# Anti-CD38 and anti-CD138 affinity matured dAbs were paired to create dual specific ligands by cloning an anti-CD38 dAb and an anti-CD138 dAb into a dual expression vector. To determine if the increased affinity of the monomers was reflected in increased binding affinity of the dual specific ligand, a range of the affinity matured anti-CD38 dAbs were paired with the anti-CD138 dAb DOM12-45, a range of affinity matured anti-CD138 dAbs were paired with anti-CD38 dAbs, and a range of affinity matured anti-CD38 dAbs and affinity matured anti-CD138 dAbs were paired. All dual specific ligands were expressed in E. coli and purified using protein L agarose followed by Resource S cation exchange chromatography when required. The binding affinity of the dual specific ligands was assessed by FACS as described previously. In this study, a range of concentrations was used to allow determination of EC50.
row,EC50 [µM],Binder
1,0.0138,B7
2,0.0167,B8
3,0.0119,B9
4,0.011,B10
